From US20220033484A1 (FAPON BIOTECH, published 2022)
Changes are numbered by the printed parent chain.

B1: Anti-cTnI-21C5 monoclonal antibody (recombinant) (antibody, mouse IgG2b, V domains shown)
VH: EVQLQQSGPELVKPGASVKMSCKASGYSFTLYVVHWVKQKPGQGLEWIGYIQPYLDGTRYNEKFKGKATLTVDKSSSTAFMELSSLTSEDSAVYYCARTGYGGYGLAWLAYWGQGTLVTVSA
VL: QAVVIQESALTTSPGETVTLTCRSSSGAATTSQYANWVQEKPDHLFTGLIGGSNNRAPGVPARFSGSLIGDKAALTITGAQTEDEAIYFCAIVYSNHWVFGGGTKLTVLG
notes: also called WT; Sample 1
B2: Mutation 1 (antibody, V domains shown)
VH: B1 VH with S28T, R59K, T99S
VL: B1 VL with S26T, I92L
notes: CDR mutant of WT
B3: Mutation 2 (antibody, V domains shown)
VH: B1 VH with R59K, T99S
VL: B1 VL with S26T, A57V
notes: Built as m3, with this row's residues
B4: Mutation 3 (antibody, V domains shown)
VH: B1 VH with S28T, R59H, T99S
VL: B1 VL with A57I, I92A
notes: as for B3
B5: Mutation 1-41 (antibody, V domains shown)
VH: B1 VH with S28T, V34I, Q52N, L55I, R59K, T99S, G103N
VL: B1 VL with S26T, A29V, Q33N, N54Q, I92L, H97Q
notes: Built as m8
B6: Mutation 1-17 (antibody, V domains shown)
VH: B1 VH with S28T, V34I, Q52N, R59K, T99S
VL: B1 VL with S26T, Q33N, N54Q, I92L, H97Q
notes: Built as m8
B7: Mutation 1-19 (antibody, V domains shown)
VH: B1 VH with S28T, L31I, V34L, Q52N, R59K, T99S, G103N
VL: B1 VL with S26T, A29V, Q33N, N54Q, I92L, H97Q
notes: Built as m8
B8: Mutation 1-49 (antibody, V domains shown)
VH: B1 VH with S28T, V34L, Q52N, R59K, T99S, G103N
VL: B1 VL with S26T, A29V, N54Q, I92L, H97N
notes: Built as m8
B9: Mutation 1-11 (antibody, V domains shown)
VH: B1 VH with S28T, V34I, Q52N, L55I, R59K, T99S
VL: B1 VL with S26T, A29V, Q33N, N54Q, I92L, H97N
notes: Built as m8
B10: Mutation 1-46 (antibody, V domains shown)
VH: B1 VH with S28T, L31I, V34L, Q52N, L55I, R59K, T99S, G103N
VL: B1 VL with S26T, A29V, Q33N, I92L, H97N
notes: Built as m8
B11: Mutation 1-53 (antibody, V domains shown)
VH: B1 VH with S28T, L31I, Q52Y, L55I, R59K, T99S
VL: B1 VL with S26T, A29V, Q33N, N54Q, I92L, H97Q
notes: Built as m8
B12: Mutation 1-45 (antibody, V domains shown)
VH: B1 VH with S28T, R59K, T99S, G103Q
VL: B1 VL with S26T, A29V, N54Q, I92L, H97Q
notes: Built as m8
B13: Mutation 1-47 (antibody, V domains shown)
VH: B1 VH with S28T, V34I, Q52N, R59K, T99S
VL: B1 VL with S26T, N54Q, I92L
notes: Built as m8
B14: Mutation 1-51 (antibody, V domains shown)
VH: B1 VH with S28T, L31I, L55I, R59K, T99S, G103Q
VL: B1 VL with S26T, I92L
notes: Built as m8
B15: Mutation 1-48 (antibody, V domains shown)
VH: B1 VH with S28T, L31I, Q52Y, L55I, R59K, T99S, G103Q
VL: B1 VL with S26T, Q33N, I92L, H97Q
notes: Built as m8
B16: Mutation 1-43 (antibody, V domains shown)
VH: B1 VH with S28T, L31I, V34L, Q52Y, L55I, R59K, T99S, G103N
VL: B1 VL with S26T, N54Q, I92L, H97Q
notes: Built as m8
B17: Mutation 1-55 (antibody, V domains shown)
VH: B1 VH with S28T, L31I, Q52Y, L55I, R59K, T99S
VL: B1 VL with S26T, A29V, N54Q, I92L, H97N
notes: Built as m8
B18: Mutation 1-54 (antibody, V domains shown)
VH: B1 VH with S28T, L31I, Q52N, R59K, T99S, G103Q
VL: B1 VL with S26T, Q33N, I92L, H97Q
notes: Built as m8
B19: Mutation 1-44 (antibody, V domains shown)
VH: B1 VH with S28T, L31I, V34I, L55I, R59K, T99S
VL: B1 VL with S26T, Q33N, I92L, H97N
notes: Built as m8
B20: Mutation 1-50 (antibody, V domains shown)
VH: B1 VH with S28T, L31I, V34I, Q52Y, L55I, R59K, T99S
VL: B1 VL with S26T, N54Q, I92L
B21: Mutation 1-52 (antibody, V domains shown)
VH: B1 VH with S28T, L31I, Q52N, R59K, T99S, G103N
VL: B1 VL with S26T, I92L, H97N
notes: Built as m8

Each binder was assayed against T1, cTnI quality control product recombinant protein (human, UniProt P19429 2-210, limits assumed) (assay: sandwich ELISA, antibody 12.346 ng/ml on anti-mouse IgG, cTnI 0.15 ug/ml, HRP second mAb).
T1 construct: treated as the same molecule; also called cTnI antigen; cardiac troponin I
T1 sequence (P19429 2-210 limits assumed): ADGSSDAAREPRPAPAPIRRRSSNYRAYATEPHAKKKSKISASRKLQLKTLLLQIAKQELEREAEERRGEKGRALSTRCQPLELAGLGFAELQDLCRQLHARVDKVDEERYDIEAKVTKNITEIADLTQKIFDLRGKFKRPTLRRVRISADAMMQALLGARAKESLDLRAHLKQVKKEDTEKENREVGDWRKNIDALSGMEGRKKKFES
Procedure: (§1) After mutation, the antibody activity is detected. 1 μg/ml of goat anti-mouse IgG is diluted with coating solution to coat a microwell plate, 100 μL per well, and overnight at 4 DEG C.; on the next day, it is washed twice with washing solution, and patted dry; blocking solution (20% BSA+80% PBS) is added, 120 μL per well, 37 DEG C., and 1 h, and patted dry; a diluted cTnI monoclonal antibody is added, 100 μL/well, 37 DEG C., and 60 min; liquid in the plate is shaken off, patted dry, and 20% of mouse negative blood is added for blocking, 120 μl per well, 37 DEG C., 1 h; liquid in the plate is shaken off, patted dry, a diluted cTnI antigen (0.15 μg/ml) is added, 100 μL per well, 37 DEG C., and 40 min; it is washed for 5 times with the washing solution, and patted dry; another strain of the cTnI monoclonal antibody (1:5K) labeled with HRP is added, 100 μL per well, 37 DEG C., and 30 min; color developing solution A (50 μL/well) is added, color developing solution B (50 μL/well) is added, 10 min; stop solution is added, 50 μL/well; and a OD value is read at 450 nm (refer to 630 nm) on a microplate reader.

| OD450 (ref. 630 nm) [OD] | Binder |
| --- | --- |
| 1.97 | B1 |
| 2.24 | B2 |
| 1.94 | B3 |
| 0.824 | B4 |

What follows are binders tested against T1, cTnI quality control product … (assay: sandwich ELISA, antibody 37.037 ng/ml on anti-mouse IgG, cTnI 0.15 ug/ml, HRP second mAb).
Procedure: as §1

| OD450 (ref. 630 nm) [OD] | Binder |
| --- | --- |
| 2.16 | B1 |
| 2.33 | B2 |
| 2.1 | B3 |
| 1.58 | B4 |

These binders were tested against T1, cTnI quality control product … (assay: sandwich ELISA, antibody 0.000 ng/ml (blank of this series), cTnI 0.15 ug/ml, HRP second mAb).
Procedure: as §1

| OD450 (ref. 630 nm) [OD] | Binder |
| --- | --- |
| 0.13 | B1 |
| 0.114 | B2 |
| 0.117 | B3 |

The binders below were run against T1, cTnI quality control product … (assay: sandwich ELISA, antibody 0.457 ng/ml on anti-mouse IgG, cTnI 0.15 ug/ml, HRP second mAb).
Procedure: as §1

| OD450 (ref. 630 nm) [OD] | Binder |
| --- | --- |
| 0.365 | B1 |
| 0.524 | B2 |
| 0.211 | B3 |

Each binder was assayed against T1, cTnI quality control product … (assay: sandwich ELISA, antibody 1.372 ng/ml on anti-mouse IgG, cTnI 0.15 ug/ml, HRP second mAb).
Procedure: as §1

| OD450 (ref. 630 nm) [OD] | Binder |
| --- | --- |
| 0.612 | B1 |
| 0.94 | B2 |
| 0.421 | B3 |
| 0.15 | B4 |

Each binder was assayed against T1, cTnI quality control product … (assay: AMC sensor, antibody immobilised, cTnI in solution).
Procedure: Operating process: it is equilibrated in Buffer 1 (PBST) for 60 s, the antibody is immobilized in an antibody solution for 300 s, incubated in Buffer 2 (PBST) for 180 s, bound in antigen solution for 420 s, dissociated in the Buffer 2 for 1200 s, 10 mM of GLY solution with pH 1.69 and Buffer 3 are used for sensor regeneration, and data is output. KD represents an equilibrium dissociation constant, namely the affinity; Kon represents a binding rate; and Kd is represents a dissociation rate.

| Kd [nM] | koff [s⁻¹] | kon [M⁻¹ s⁻¹] | Binder |
| --- | --- | --- | --- |
| 70.9 | 0.0034 | 48000 | B1 |
| 7.89 | 0.000647 | 82000 | B5 |
| 7.37 | 0.000237 | 32100 | B6 |
| 4.81 | 0.000274 | 57000 | B7 |
| 1.51 | 0.000134 | 88400 | B8 |
| 4.23 | 0.000142 | 33500 | B9 |
| 5.41 | 0.000217 | 40100 | B10 |
| 8.38 | 0.000543 | 64800 | B11 |
| 7.41 | 0.000286 | 38600 | B12 |
| 3.05 | 0.000196 | 64100 | B13 |
| 4.2 | 0.000214 | 51000 | B2 |
| 7.3 | 0.000223 | 30500 | B14 |
| 0.553 | 4.32e-05 | 78200 | B15 |
| 0.464 | 3.38e-05 | 72900 | B16 |
| 4.31 | 0.000239 | 55400 | B17 |
| 7.78 | 0.000321 | 41300 | B18 |
| 6.56 | 0.000205 | 31300 | B19 |
| 4.61 | 0.000233 | 50500 | B20 |
| 6.01 | 0.000492 | 81800 | B21 |

Each binder was assayed against T1, cTnI quality control product … (assay: sandwich ELISA, antibody 4.115 ng/ml on anti-mouse IgG, cTnI 0.15 ug/ml, HRP second mAb).
Procedure: as §1

| OD450 (ref. 630 nm) [OD] | Binder |
| --- | --- |
| 1.19 | B1 |
| 1.89 | B2 |
| 1.51 | B3 |
| 0.347 | B4 |
